T1: FcγRIIb extracellular domain with C-terminal His tag (human, UniProt P31994 43-217)
T1 construct: extracellular domain; also called FcgRIIb; 2b
T1 sequence (looked up): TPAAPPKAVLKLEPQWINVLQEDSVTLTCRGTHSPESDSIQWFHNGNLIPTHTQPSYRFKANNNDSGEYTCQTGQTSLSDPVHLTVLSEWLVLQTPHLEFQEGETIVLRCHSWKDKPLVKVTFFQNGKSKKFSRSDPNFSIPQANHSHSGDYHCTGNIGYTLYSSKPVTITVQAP


Key:
[1] = biological target: T2, FcγRIa extracellular domain with C-terminal His tag (human, UniProt P12314 16-292); test: SPR (Biacore); He/Con_1a divided by He/Con_2b (FcγRIa binding over FcγRIIb binding)
T2 construct: extracellular domain; also called FcgRI; 1a
T2 sequence (P12314 16-292): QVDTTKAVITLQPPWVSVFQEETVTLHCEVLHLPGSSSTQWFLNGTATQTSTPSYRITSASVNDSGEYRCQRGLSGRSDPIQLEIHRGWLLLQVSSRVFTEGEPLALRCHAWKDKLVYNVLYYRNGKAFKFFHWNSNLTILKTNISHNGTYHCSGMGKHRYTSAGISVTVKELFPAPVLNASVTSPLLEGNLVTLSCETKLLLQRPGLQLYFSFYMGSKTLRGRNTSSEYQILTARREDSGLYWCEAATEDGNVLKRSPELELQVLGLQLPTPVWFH
Protocol: (§1) The heterodimerized antibodies He Abs in which one of the H chains was introduced with an alteration were assayed for their binding activities to each activating FcγR and inhibitory FcγR according to the method described in Example 4. […] The activating FcγRs in FIGS. 26, 27, 28, and 29 are FcγRIa, FcγRIIa (R), FcγRIIa (H), and FcγRIIIa, respectively.
(§2) Analysis of interaction between objective antibody and the FcγR was carried out using Biacore T100 (GE Healthcare). HBS-EP+ (GE Healthcare) was used as the running buffer, and the measurement temperature was set to 25° C. Chips produced by immobilizing the antigen peptide by the amine coupling method to a Series S Sencor Chip CM5 (GE Healthcare), or alternatively, chips produced by allowing preliminarily biotinylated antigen peptides to interact with and immobilize onto a Series S Sensor Chip SA (certified) (GE Healthcare) were used. Antibodies of interest were captured onto an antigen peptide-immobilized chip, and allowed to interact to each FcγR diluted with running buffer. To regenerate and repeatedly use the chip, the antibodies captured on the chip were washed off by reacting 10 mM glycine-HCl, pH 1.5.

[2] = biological target: T2, FcγRIa extracellular domain with …; test: SPR (Biacore), antibody captured via antigen peptide, FcγR as analyte; relative binding
Protocol: as §1, §2

[3] = biological target: T1, FcγRIIb extracellular domain with …; test: as above
Protocol: as §1, §2

He_1a/2b (Ia/IIb) [1]	He/Con_1a [2]	He/Con_2b [3]	Binder
1.22 ratio	103 % of GpH7-A5/GpH7-B3/GpL16-k0 (=100)	84.3 % of GpH7-A5/GpH7-B3/GpL16-k0 (=100)	GpH7-A5/GpH7-B3 variant Q295_07I/GpL16-k0 (antibody, human IgG1, kappa, Heterodimerized anti-glypican-3 IgG1; alteration only in the GpH7-B3 chain, EU numbering; also called He Ab) heavy 1: not shown heavy 2: not shown light: DIVMTQSPLSLPVTPGEPASISCQASESLVHSNRNTYLHWYLQKPGQSPQLLIYKVSNRFSGVPDRFSGSGSGTDFTLKISRVEAEDVGVYYCSQNTHVPPTFGQGTKVEIERTVAAPSVFIFPPSDEQLKSGTASVVCLLNNFYPREAKVQWKVDNALQSGNSQESVTEQDSKDSTYSLSSTLTLSKADYEKHKVYACEVTHQGLSSPVTKSFNRGEC
1.58 ratio	102 % of GpH7-A5/GpH7-B3/GpL16-k0 (=100)	64.9 % of GpH7-A5/GpH7-B3/GpL16-k0 (=100)	GpH7-A5/GpH7-B3 variant Q295_18N/GpL16-k0 (antibody, human IgG1, kappa, Heterodimerized anti-glypican-3 IgG1; alteration only in the GpH7-B3 chain, EU numbering; also called He Ab) heavy 1: not shown heavy 2: not shown light: DIVMTQSPLSLPVTPGEPASISCQASESLVHSNRNTYLHWYLQKPGQSPQLLIYKVSNRFSGVPDRFSGSGSGTDFTLKISRVEAEDVGVYYCSQNTHVPPTFGQGTKVEIERTVAAPSVFIFPPSDEQLKSGTASVVCLLNNFYPREAKVQWKVDNALQSGNSQESVTEQDSKDSTYSLSSTLTLSKADYEKHKVYACEVTHQGLSSPVTKSFNRGEC
1.58 ratio	102 % of GpH7-A5/GpH7-B3/GpL16-k0 (=100)	64.7 % of GpH7-A5/GpH7-B3/GpL16-k0 (=100)	GpH7-A5/GpH7-B3 variant Q295_04F/GpL16-k0 (antibody, human IgG1, kappa, Heterodimerized anti-glypican-3 IgG1; alteration only in the GpH7-B3 chain, EU numbering; also called He Ab) heavy 1: not shown heavy 2: not shown light: DIVMTQSPLSLPVTPGEPASISCQASESLVHSNRNTYLHWYLQKPGQSPQLLIYKVSNRFSGVPDRFSGSGSGTDFTLKISRVEAEDVGVYYCSQNTHVPPTFGQGTKVEIERTVAAPSVFIFPPSDEQLKSGTASVVCLLNNFYPREAKVQWKVDNALQSGNSQESVTEQDSKDSTYSLSSTLTLSKADYEKHKVYACEVTHQGLSSPVTKSFNRGEC
1.7 ratio	110 % of GpH7-A5/GpH7-B3/GpL16-k0 (=100)	64.5 % of GpH7-A5/GpH7-B3/GpL16-k0 (=100)	GpH7-A5/GpH7-B3 variant S298_03V/GpL16-k0 (antibody, human IgG1, kappa, Heterodimerized anti-glypican-3 IgG1; alteration only in the GpH7-B3 chain, EU numbering; also called He Ab) heavy 1: not shown heavy 2: not shown light: DIVMTQSPLSLPVTPGEPASISCQASESLVHSNRNTYLHWYLQKPGQSPQLLIYKVSNRFSGVPDRFSGSGSGTDFTLKISRVEAEDVGVYYCSQNTHVPPTFGQGTKVEIERTVAAPSVFIFPPSDEQLKSGTASVVCLLNNFYPREAKVQWKVDNALQSGNSQESVTEQDSKDSTYSLSSTLTLSKADYEKHKVYACEVTHQGLSSPVTKSFNRGEC
1.64 ratio	102 % of GpH7-A5/GpH7-B3/GpL16-k0 (=100)	62.7 % of GpH7-A5/GpH7-B3/GpL16-k0 (=100)	GpH7-A5/GpH7-B3 variant Q295_16H/GpL16-k0 (antibody, human IgG1, kappa, Heterodimerized anti-glypican-3 IgG1; alteration only in the GpH7-B3 chain, EU numbering; also called He Ab) heavy 1: not shown heavy 2: not shown light: DIVMTQSPLSLPVTPGEPASISCQASESLVHSNRNTYLHWYLQKPGQSPQLLIYKVSNRFSGVPDRFSGSGSGTDFTLKISRVEAEDVGVYYCSQNTHVPPTFGQGTKVEIERTVAAPSVFIFPPSDEQLKSGTASVVCLLNNFYPREAKVQWKVDNALQSGNSQESVTEQDSKDSTYSLSSTLTLSKADYEKHKVYACEVTHQGLSSPVTKSFNRGEC
1.79 ratio	102 % of GpH7-A5/GpH7-B3/GpL16-k0 (=100)	56.9 % of GpH7-A5/GpH7-B3/GpL16-k0 (=100)	GpH7-A5/GpH7-B3 variant Q295_13S/GpL16-k0 (antibody, human IgG1, kappa, Heterodimerized anti-glypican-3 IgG1; alteration only in the GpH7-B3 chain, EU numbering; also called He Ab) heavy 1: not shown heavy 2: not shown light: DIVMTQSPLSLPVTPGEPASISCQASESLVHSNRNTYLHWYLQKPGQSPQLLIYKVSNRFSGVPDRFSGSGSGTDFTLKISRVEAEDVGVYYCSQNTHVPPTFGQGTKVEIERTVAAPSVFIFPPSDEQLKSGTASVVCLLNNFYPREAKVQWKVDNALQSGNSQESVTEQDSKDSTYSLSSTLTLSKADYEKHKVYACEVTHQGLSSPVTKSFNRGEC
2.11 ratio	93.7 % of GpH7-A5/GpH7-B3/GpL16-k0 (=100)	44.4 % of GpH7-A5/GpH7-B3/GpL16-k0 (=100)	GpH7-A5/GpH7-B3 variant Q295_20W/GpL16-k0 (antibody, human IgG1, kappa, Heterodimerized anti-glypican-3 IgG1; alteration only in the GpH7-B3 chain, EU numbering; also called He Ab) heavy 1: not shown heavy 2: not shown light: DIVMTQSPLSLPVTPGEPASISCQASESLVHSNRNTYLHWYLQKPGQSPQLLIYKVSNRFSGVPDRFSGSGSGTDFTLKISRVEAEDVGVYYCSQNTHVPPTFGQGTKVEIERTVAAPSVFIFPPSDEQLKSGTASVVCLLNNFYPREAKVQWKVDNALQSGNSQESVTEQDSKDSTYSLSSTLTLSKADYEKHKVYACEVTHQGLSSPVTKSFNRGEC
1.65 ratio	100 % of GpH7-A5/GpH7-B3/GpL16-k0 (=100)	60.8 % of GpH7-A5/GpH7-B3/GpL16-k0 (=100)	GpH7-A5/GpH7-B3 variant Q295_09D/GpL16-k0 (antibody, human IgG1, kappa, Heterodimerized anti-glypican-3 IgG1; alteration only in the GpH7-B3 chain, EU numbering; also called He Ab) heavy 1: not shown heavy 2: not shown light: DIVMTQSPLSLPVTPGEPASISCQASESLVHSNRNTYLHWYLQKPGQSPQLLIYKVSNRFSGVPDRFSGSGSGTDFTLKISRVEAEDVGVYYCSQNTHVPPTFGQGTKVEIERTVAAPSVFIFPPSDEQLKSGTASVVCLLNNFYPREAKVQWKVDNALQSGNSQESVTEQDSKDSTYSLSSTLTLSKADYEKHKVYACEVTHQGLSSPVTKSFNRGEC
1.54 ratio	103 % of GpH7-A5/GpH7-B3/GpL16-k0 (=100)	66.8 % of GpH7-A5/GpH7-B3/GpL16-k0 (=100)	GpH7-A5/GpH7-B3 variant Q295_14T/GpL16-k0 (antibody, human IgG1, kappa, Heterodimerized anti-glypican-3 IgG1; alteration only in the GpH7-B3 chain, EU numbering; also called He Ab) heavy 1: not shown heavy 2: not shown light: DIVMTQSPLSLPVTPGEPASISCQASESLVHSNRNTYLHWYLQKPGQSPQLLIYKVSNRFSGVPDRFSGSGSGTDFTLKISRVEAEDVGVYYCSQNTHVPPTFGQGTKVEIERTVAAPSVFIFPPSDEQLKSGTASVVCLLNNFYPREAKVQWKVDNALQSGNSQESVTEQDSKDSTYSLSSTLTLSKADYEKHKVYACEVTHQGLSSPVTKSFNRGEC

Reference: patent publication US20150344570A1 (published 2015)
